Reference: patent publication US20220204643A1 (published 2022)
Values belong to the binder of their own block, whether it stands above or below them.

Assays:
BTB domain containing 8 = biological target: T1, BTB domain containing 8 (human, UniProt Q5XKL5 1-374, limits assumed); assay: protein array
T1 construct: on protein array; also called BTBD8

[1] = biological target: T2, Jupiter microtubule associated homolog 2 (human, UniProt Q9H910 1-190); assay: protein array
T2 construct: on protein array; also called HN1L
T2 sequence: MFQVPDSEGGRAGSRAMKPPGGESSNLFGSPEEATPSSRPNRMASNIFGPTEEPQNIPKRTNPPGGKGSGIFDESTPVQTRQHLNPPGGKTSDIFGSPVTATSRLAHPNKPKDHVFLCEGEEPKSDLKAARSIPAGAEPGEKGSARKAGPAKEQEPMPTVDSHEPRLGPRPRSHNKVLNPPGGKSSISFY

[2] = biological target: T3, rhophilin associated tail protein 1 like, transcript variant 2 (human, UniProt Q96C74 1-230); assay: protein array
T3 construct: on protein array; also called ROPN1L
T3 sequence: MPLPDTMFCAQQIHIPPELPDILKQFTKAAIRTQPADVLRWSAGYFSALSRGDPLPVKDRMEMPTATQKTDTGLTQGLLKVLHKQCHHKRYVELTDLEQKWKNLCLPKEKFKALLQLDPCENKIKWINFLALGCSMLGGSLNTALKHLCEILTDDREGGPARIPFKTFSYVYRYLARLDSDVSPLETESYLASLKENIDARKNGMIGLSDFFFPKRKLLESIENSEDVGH

[3] = biological target: T4, Dpy-30 histone methyltransferase complex regulatory subunit (human, UniProt Q9C005 1-99); assay: protein array
T4 construct: on protein array

Deoxyhypusine synthase = biological target: T5, Deoxyhypusine synthase (human, UniProt P49366 1-369); assay: protein array
T5 construct: on protein array; also called DHPS
T5 sequence: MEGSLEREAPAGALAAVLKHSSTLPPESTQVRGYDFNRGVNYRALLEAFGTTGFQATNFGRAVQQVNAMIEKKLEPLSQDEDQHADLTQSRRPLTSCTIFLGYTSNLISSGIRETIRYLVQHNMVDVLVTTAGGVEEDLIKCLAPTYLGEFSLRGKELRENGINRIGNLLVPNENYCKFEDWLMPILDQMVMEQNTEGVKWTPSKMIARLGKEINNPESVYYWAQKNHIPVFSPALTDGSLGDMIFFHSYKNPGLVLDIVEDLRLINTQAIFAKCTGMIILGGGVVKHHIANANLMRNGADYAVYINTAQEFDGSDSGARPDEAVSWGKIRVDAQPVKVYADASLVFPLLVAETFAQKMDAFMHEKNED

[4] = biological target: T6, 5-hydroxytryptamine receptor 1E (human, UniProt P28566 1-365); assay: protein array
T6 construct: on protein array; also called HTR1E

[5] = biological target: T7, microtubule associated protein RP/EB family member 2, transcript variant 1 (human, UniProt Q15555 1-327); assay: protein array
T7 construct: on protein array; also called MAPRE2

[6] = biological target: T8, serpin family B member 6, transcript variant 2 (human, UniProt P35237 1-376); assay: protein array
T8 construct: on protein array; also called SERPINB6
T8 sequence: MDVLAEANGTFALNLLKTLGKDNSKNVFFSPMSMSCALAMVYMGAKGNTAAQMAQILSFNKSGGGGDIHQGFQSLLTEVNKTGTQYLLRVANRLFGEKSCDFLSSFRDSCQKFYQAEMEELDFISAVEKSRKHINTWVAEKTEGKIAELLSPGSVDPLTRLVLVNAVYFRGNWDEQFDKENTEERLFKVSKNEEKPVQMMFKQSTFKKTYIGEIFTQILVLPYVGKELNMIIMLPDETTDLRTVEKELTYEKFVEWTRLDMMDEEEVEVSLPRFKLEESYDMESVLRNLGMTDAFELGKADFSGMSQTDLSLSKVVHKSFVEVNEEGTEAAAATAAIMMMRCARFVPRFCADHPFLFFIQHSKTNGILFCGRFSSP

[7] = biological target: T9, interleukin 27 receptor subunit alpha (human, UniProt Q6UWB1 33-636); assay: protein array
T9 construct: on protein array; also called IL27RA
T9 sequence: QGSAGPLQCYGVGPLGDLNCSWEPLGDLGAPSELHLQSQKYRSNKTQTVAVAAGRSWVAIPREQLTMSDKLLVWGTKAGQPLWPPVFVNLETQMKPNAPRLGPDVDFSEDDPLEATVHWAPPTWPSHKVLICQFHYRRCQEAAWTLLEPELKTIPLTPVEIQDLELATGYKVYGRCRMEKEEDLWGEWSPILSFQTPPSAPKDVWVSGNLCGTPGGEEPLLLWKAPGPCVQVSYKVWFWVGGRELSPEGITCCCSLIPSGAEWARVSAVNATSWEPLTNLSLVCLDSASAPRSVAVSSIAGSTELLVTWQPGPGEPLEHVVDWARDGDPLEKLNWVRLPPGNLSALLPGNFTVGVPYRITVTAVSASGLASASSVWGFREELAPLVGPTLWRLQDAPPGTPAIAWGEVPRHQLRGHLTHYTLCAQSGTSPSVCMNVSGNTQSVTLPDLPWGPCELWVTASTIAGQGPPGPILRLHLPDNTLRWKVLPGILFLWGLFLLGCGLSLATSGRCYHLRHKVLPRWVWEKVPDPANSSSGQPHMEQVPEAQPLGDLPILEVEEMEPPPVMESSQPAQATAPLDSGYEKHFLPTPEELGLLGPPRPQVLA

[8] = biological target: T10, microfibril associated protein 3, transcript variant 3 (human, UniProt P55082 19-362); assay: protein array
T10 construct: on protein array; also called MFAP3

[9] = biological target: T11, HEAT repeat containing 3, transcript variant 1 (human, UniProt Q7Z4Q2 1-680); assay: protein array, with experimental replicate
T11 construct: on protein array; also called HEATR3
T11 sequence: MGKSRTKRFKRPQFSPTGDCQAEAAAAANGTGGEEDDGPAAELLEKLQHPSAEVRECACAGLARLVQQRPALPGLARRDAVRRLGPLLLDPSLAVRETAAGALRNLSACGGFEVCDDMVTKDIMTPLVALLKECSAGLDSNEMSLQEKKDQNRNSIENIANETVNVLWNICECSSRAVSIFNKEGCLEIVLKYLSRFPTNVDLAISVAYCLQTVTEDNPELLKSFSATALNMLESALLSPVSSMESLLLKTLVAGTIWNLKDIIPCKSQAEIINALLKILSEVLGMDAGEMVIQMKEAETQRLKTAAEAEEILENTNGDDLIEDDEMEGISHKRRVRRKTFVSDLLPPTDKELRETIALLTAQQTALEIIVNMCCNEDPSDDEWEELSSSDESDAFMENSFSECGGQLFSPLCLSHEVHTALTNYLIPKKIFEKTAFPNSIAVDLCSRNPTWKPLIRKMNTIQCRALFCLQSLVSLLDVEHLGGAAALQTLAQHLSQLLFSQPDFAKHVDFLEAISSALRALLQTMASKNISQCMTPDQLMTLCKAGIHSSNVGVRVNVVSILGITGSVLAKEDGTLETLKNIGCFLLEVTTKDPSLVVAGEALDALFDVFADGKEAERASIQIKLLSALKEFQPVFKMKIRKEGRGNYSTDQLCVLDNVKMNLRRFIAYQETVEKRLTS

T1 sequence (Q5XKL5 other isoform, or with tags, fused parts or gaps limits assumed): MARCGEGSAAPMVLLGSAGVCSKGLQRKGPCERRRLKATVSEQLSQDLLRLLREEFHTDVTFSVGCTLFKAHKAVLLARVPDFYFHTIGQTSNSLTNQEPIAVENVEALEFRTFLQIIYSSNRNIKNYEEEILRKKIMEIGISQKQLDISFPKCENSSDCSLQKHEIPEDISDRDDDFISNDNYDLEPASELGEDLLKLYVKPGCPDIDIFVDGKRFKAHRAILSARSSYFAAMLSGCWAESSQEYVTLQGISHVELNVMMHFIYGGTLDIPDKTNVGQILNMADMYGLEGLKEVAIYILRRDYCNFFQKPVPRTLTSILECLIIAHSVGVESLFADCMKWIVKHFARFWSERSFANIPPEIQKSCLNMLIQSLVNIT
T7 sequence (Q15555 whole entry, change not shown): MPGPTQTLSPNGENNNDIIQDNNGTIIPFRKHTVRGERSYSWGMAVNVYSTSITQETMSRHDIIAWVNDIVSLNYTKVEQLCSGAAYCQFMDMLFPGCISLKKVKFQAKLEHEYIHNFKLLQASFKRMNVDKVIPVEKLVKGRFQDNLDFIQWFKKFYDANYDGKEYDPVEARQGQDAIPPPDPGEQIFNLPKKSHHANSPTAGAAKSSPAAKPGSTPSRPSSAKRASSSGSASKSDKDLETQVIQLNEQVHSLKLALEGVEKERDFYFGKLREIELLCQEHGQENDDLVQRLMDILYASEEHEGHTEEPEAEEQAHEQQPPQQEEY
T6 sequence (P28566 whole entry): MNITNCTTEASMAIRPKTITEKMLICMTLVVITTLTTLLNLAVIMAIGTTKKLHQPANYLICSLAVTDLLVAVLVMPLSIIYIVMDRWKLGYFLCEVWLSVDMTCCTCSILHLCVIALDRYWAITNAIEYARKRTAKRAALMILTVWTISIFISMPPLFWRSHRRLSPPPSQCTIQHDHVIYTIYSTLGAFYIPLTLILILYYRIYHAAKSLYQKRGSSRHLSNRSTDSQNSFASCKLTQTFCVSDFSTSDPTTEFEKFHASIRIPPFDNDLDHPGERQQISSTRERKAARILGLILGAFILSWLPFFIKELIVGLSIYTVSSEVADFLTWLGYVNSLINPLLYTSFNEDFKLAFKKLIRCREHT
T10 sequence (P55082 19-362 limits assumed, change not shown): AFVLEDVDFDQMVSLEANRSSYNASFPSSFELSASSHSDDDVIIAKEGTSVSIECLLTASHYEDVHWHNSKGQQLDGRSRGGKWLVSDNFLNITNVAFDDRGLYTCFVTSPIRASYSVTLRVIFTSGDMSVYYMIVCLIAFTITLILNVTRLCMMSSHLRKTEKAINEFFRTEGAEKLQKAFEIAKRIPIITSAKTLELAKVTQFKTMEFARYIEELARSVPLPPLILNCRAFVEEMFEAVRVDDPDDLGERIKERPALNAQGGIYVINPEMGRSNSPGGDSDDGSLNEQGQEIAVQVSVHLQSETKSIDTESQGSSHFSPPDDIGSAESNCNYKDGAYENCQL
T4 sequence (Q9C005 whole entry, one chain of several): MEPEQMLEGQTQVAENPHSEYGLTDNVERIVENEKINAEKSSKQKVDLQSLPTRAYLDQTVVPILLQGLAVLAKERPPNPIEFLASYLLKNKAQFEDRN

B1: TMES1002 (antibody, V domains shown)
VH: QVQVVESGGGLVKPGGSLRLSCAVSGLDFRDYYVNWIRQAPGKGLEWLSYITSPGGHTSYSDSVKGRFTISRDNAKNSVYLQMDSLTVEDTAVYFCAIKEGYGLSDWGQGTLVTVSS
VL: EIVLTQSPVTLSLSPGERATLSCRASQSVSSSYIAWYQQKPGQAPRLLIYGASTRATGIPDRFSGSGSGTDFTLTISRLEPEDCAVFYCQQYGSSHYTFGQGTKLEIKR
notes: VH/VL tied via antigen in summary, not by name in this stretch
binding result (BTB domain containing 8): binds
binding result [1]: binds

B2: TMEL1041 (antibody, V domains shown)
VH: EVQLLESGGGLVQPGGSLRLSCAASGFTFRIYAMSWVRQAPGKGLEWVSAISYSGNTTYYADSVKGRFTISRDNSKNTLYLQINNLRAEDTAIYYCAIQEKRELQLRRELDNYWGQGTLVTVSS
VL: PYELTQPPSVSLSPGQTARITCSGDALPKKYAYWYQQKSGQAPVLVIYEDSKRPSGIPERFSGSSSGTTATLTISGAQVDDEGDYYCYSPDSSGNVWVFGGGTKLTVLG
notes: as for B1
binding result [2]: binds
binding result [3]: binds

B4: TBLA1013 (antibody, V domains shown)
VH: EVQLLESGGGLVQPGGSLTLSCVGSRFTFSSYAMNWVRQSPGRGLEWVASISATTGSTYYTDSVEGRFTISRDNSRDTLYLQMNSLRADDTALYYCVRSFVGAVPAYPNFDFWGPGTLVTVSS
VL: PSGLTQPPSASGTPGQRVTMSCSGSSSNIGRNYVYWYQQLPGAAPKLLIYRDNQRPSGVPDRFSGSKSGTSASLAISGLRSEDEADYYCAAWDDNVSGPGFGAGTRLTVLG
notes: VH/VL only
binding result [4]: binds

B6: TMEL1040 (antibody, V domains shown)
VH: EVQLVQSGAEVKKPGESLKISCKGSGYSFTTYWIAWVRQMPGKGLEWMGIIYPADSDTRYSPSFQGQVTMSADQSINTAYLQWSSLKASDTAMYYCARRGREFDYWGQGTLLTVSS
VL: QSALTQPASVSGSPGQSITISCTGTSSDVGSYNLVSWYQQHPGKAPKLMIYEGSKRPSGVSNRFSGSKSGNTASLTISGLQAEDEADYYCCSYAGSSTPWVFGGGTKLTVL
notes: as for B1
binding result [6]: binds

B8: TBRE1002 (antibody, V domains shown)
VH: QVQLVESGGGVVQPGGSLRLSCGASGFAFSSNGMHWVRQAPGKGLEWVAFIHYDGRNKHYTDSVKGRFAISVDDSKTTLYLQMSSLKTEDTAVYYCVKDSRVTGQSSGYIFDSWGQGTLVTVSS
VL: ETVMTQSPATLSVSPGDRATLSCRASQNVNFNLAWYQQKPGQAPRLLIYDASTRATGIPARFSGSASGTEFTLTINSLQSEDFAVYYCQQYNNWWTFGQGTKLEIKR
notes: VH/VL only
binding result [8]: binds

B9: TOVA1004 (antibody, V domains shown)
VH: EVQLVESGGGLVKPGGSLRLSCAASGFTFSSYSMNWVRQAPGKGLEWVSSISSSSSYIYYADSVKGRFTISRDNAKNSLYLQMNSLRAEDTAVYYCARDRGVVVVAATPYYYGMDVWGQGTTVTVSS
VL: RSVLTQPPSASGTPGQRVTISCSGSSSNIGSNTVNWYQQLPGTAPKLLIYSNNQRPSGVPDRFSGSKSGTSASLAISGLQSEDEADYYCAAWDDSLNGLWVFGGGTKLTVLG
notes: as for B1
binding result [9]: binds

Other lines, results leading:

binding result (Deoxyhypusine synthase): binds
B3: TOVA1003 (antibody)
VH: GEQLLESGGGLVQPGGSLRLSCAASGFTFSHYAMTWVRQAPGKGLEWVSGVSGSGFTTYYADSVKGRFTISRDNAQNTLYLHMNSLRAEDTAIYYCVKDLEVSIGHNFDFWGQGTLVTVSSASTKGPSVFPLAPSSKSTSGGTAALGCLVKDYFPEPVTVSWNSGALTSGVHTFPAVLQSSGLYSLSSVVTVPSSSLGTQTYICNVNHKPSNTKVDKRV
VL: EVQMTQSPSSLSASVGDRVTITCRASQHIAGRLNWYQQKPGKAPKLLIHSASSVQREVPSRFGGSGFGTDFTLTIYSLQAEDFATYFCQQSYYTPPTFAGGTRVDLKRTVAAPSVFIFPPSDEQLKSGTASVVCLLNNFYPREAKVQWKVDNALQSGNSQESVTEQDSKDSTYSLSSTLTLSKADYEKHKVYACEVTHQGLSSPVTKSFNRGEC
notes: as for B1

binding result [5]: binds
B5: TMES1004 (antibody, V domains shown)
VH: QVQLVQSGAEVKKPGASVKISCKASGYTFTSHAIHWVRQAPGQTFEWLGWINPVNGVTKYSQTFQDRVTIVRDKSATTTYMDLSGLTFEDTAMYYCARVLDFYGSSVLDYWGQGTLVTVSS
VL: QSALTQPASVSGSPGQSITISCTGTSSDIGTYNLVSWYQQRPGKAPKLIIYDVIKRPSGISDRFSGSKSDNMASLTISGLQAEDEAHYYCCSYRSSTAPVVFGGGTKVTVL
notes: as for B1

binding result [7]: binds
B7: TOVA1002 (antibody, V domains shown)
VH: QVQLVESGGGVVQPGRSLRLSCAASGFTFSNFAMHWVRQAPGKGLEWVVVISSDGSNKNYADSVKGRFTISRDNSKNTLYLQMNSLRAEDTAVYYCARDLGVGSTTYWGQGTLVTVSS
VL: SYVLTQPPSVSVAPGQTARITCGGNNIGSKSVHWYQQKPGQAPVLVVYDDSDRPSGIPERFSGSNSGNTATLTISRVEAGDEADYYCQVWDGYSDPLVFGGGTKLTVLG
notes: as for B1
